Laboratory results from paper PMC6007404 (Nucleic Acids Research, 2018).

How the values were obtained:
[1] = target: T1, MotA E153A (Enterobacteria phage T4, UniProt P22915 1-211, E153A); test: EMSA; slightly tighter than wt; EMSA: 0.01 pmol 32P-DNA, 1.7 pmol MotA, native 12% PAGE in 1x TBE at 4 C, other conditions as in ref 14; SPR: biotin-DNA on neutravidin chip, buffer as in ref 2
T1 sequence: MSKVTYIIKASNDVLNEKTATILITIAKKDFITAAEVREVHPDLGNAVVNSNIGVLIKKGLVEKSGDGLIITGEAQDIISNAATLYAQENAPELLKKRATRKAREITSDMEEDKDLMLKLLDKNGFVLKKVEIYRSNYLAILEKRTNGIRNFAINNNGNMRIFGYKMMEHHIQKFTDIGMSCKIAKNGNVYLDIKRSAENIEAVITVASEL

[2] = target: T2, MotA Y134A (Enterobacteria phage T4, UniProt P22915 1-211, Y134A); test: EMSA; similar to wt; EMSA: 0.01 pmol 32P-DNA, 1.7 pmol MotA, native 12% PAGE in 1x TBE at 4 C, other conditions as in ref 14; SPR: biotin-DNA on neutravidin chip, buffer as in ref 2
T2 sequence: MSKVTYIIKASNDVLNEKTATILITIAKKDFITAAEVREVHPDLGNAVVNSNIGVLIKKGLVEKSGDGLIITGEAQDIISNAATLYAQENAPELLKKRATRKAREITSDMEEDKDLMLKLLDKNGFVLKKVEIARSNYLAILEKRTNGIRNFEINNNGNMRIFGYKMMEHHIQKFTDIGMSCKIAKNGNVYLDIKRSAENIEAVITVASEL

[3] = target: T1, MotA E153A; test: EMSA; no difference; data not shown; EMSA: 0.01 pmol 32P-DNA, 1.7 pmol MotA, native 12% PAGE in 1x TBE at 4 C, other conditions as in ref 14; SPR: biotin-DNA on neutravidin chip, buffer as in ref 2

B1: EMSA 19-mer unmodified (dsDNA)
DNA 1: AATTATTTGCTTTAGATTA
DNA 2: TAATCTAAAGCAAATAATT
binding result [1]: binds | binding result [2]: binds

B2: EMSA 19-mer GHMe/unmod (dsDNA)
DNA 1: AATTATTTGCTTTAGATTA
DNA 2: TAATCTAAAGCAAATAATT
modifications: beta-D-glucosyl-5-hydroxymethyl-dC at top C10
binding result [3]: binds
